# B1: TdT-F4R10 conjugate (designed binder)
# chain: GSSHHHHHHGGSSDSPVDLKPKPKVKPKLERPKLYKVMLLNDNSTPGEFVTVVLKAVFRMSEDTGRRVMMTAHRFGSAVVVVSERDIAETKAKEATDLGKEAGFPLMFTTEPEEGAPSGAPSGAPSGAPSGAPSGAPSSPSPVPGSQNVPAPAVKKISQYACQRRTTLNNYNQLFTDALDILAENDELRENEGSCLAFMRASSVLKSLPFPITSMKDTEGIPCLGDKVKSIIEGIIEDGESSEAKAVLNDERYKSFKLFTSVFGVGLKTAEKWFRMGFRTLSKIQSDKSLRFTQMQKAGFLYYEDLVSCVNRPEAEAVSMLVKEAVVTFLPDALVTMTGGFRRGKMTGHDVDFLITSPEATEDEEQQLLHKVTDFWKQQGLLLYCDILESTFEKFKQPSRKVDALDHFQKCFLILKLDHGRVHSEKSGQQEGKGWKAIRVDLVMCPYDRRAFALLGWTGSRQFERDLRRYATHERKMMLDNHALYDRTKRVFLEAESEEEIFAHLGLDYIEPWERNA
# Molecular target: immobilized peptides having F NTAA residue (F-P2 peptides of the 484-peptide P1-P2 array)
# Test: cell-based or functional assay
binder,measurement,value
B1,nucleotides inserted into the recording tag per encoding cycle (nt per encoding cycle),5 to 8
